Source: patent US11767351B2, “Recombinant lectin and uses thereof” (CITY OF HOPE, priority 2017, dated 2023)
“Also recorded” adds a separate entry of the source.

Legend:
[1] = Glycan microarray (RayBio Glycan Array 100); format: binding; conditions: biotin-labeled SHAs 20 μg/ml (1×) and 2 μg/ml (0.1×), absence of L-rhamnose
[2] = Glycan microarray (RayBio Glycan Array 100); format: binding; conditions: biotin-labeled SHAs 20 μg/ml (1×) and 2 μg/ml (0.1×), absence of L-rhamnose; remark: listed apart in the source
[3] = Glycan microarray (RayBio Glycan Array 100); format: binding; conditions: biotin-labeled SHAs 20 μg/ml (1×) and 2 μg/ml (0.1×), absence of L-rhamnose; remark: listed apart in the source
[4] = Glycan microarray (RayBio Glycan Array 100); format: binding; conditions: biotin-labeled SHAs 20 μg/ml (1×) and 2 μg/ml (0.1×), absence of L-rhamnose; remark: listed apart in the source
[5] = Glycan microarray (RayBio Glycan Array 100); format: binding; conditions: biotin-labeled SHAs 20 μg/ml (1×) and 2 μg/ml (0.1×), absence of L-rhamnose; remark: listed apart in the source
[6] = Glycan microarray (RayBio Glycan Array 100), whole array profile and L-rhamnose competition; format: binding; conditions: for carbohydrate-binding specificity compared with archived SHA: side by side on Glycan Array 100
Protocol: (§1) Glycan microarray analyses—Microarray analysis was performed according to the manufacturer recommendations using RayBio Glycan Array 100 (RayBiotech, Norcross Ga.) slides. Each slide contains four sub-microarrays printed with 100 synthetic glycans. Briefly, 200 μL of 0.1 mg/mL of both archived SHA and rSHA were dialyzed overnight at 4° C. against 1×PBS dialysis buffer to avoid contaminating samples with amines prior to biotinylation. Dialyzed samples were incubated with biotin-containing reaction solution at 22° C. for 30 min. Sub-arrays were blocked for 30 min at 22° C. After biotinylated SHA samples were diluted with 1×PBS, 400 μL of each sample was added to each sub-array. Slide #1 sub-arrays were incubated with 400 μL of 20 μg/mL (1×) or 2 μg/mL (0.1×) SHA, in the absence or presence of 0.2 M L-Rhamnose. Slide #2 sub-arrays were incubated with 400 μL of 20 μg/mL (1×) or 2 μg/mL of rSHA (0.1×), in the absence or presence of 0.2 M L-rhamnose. Slides were incubated for 16 h at 4° C. for highest intensities. Washing was performed according to the manufacturer's protocol, followed by incubation with Cy3 dye-conjugated streptavidin. The slides were incubated at 22° C. for 1 h with gentle shaking, then washed multiple times as recommended. The signals were visualized using an Agilent DNA microarray scanner (Model G2505C; Agilent, Santa Clara, Calif.) at 532 nm for Cy3. Data extraction and analysis was performed after subtraction of the background and normalization to the internal references provided by the manufacturer, using an ImageJ Protein Array Analyzer software (28).
(§2) Therefore, a novel construct that encoded an E. coli codon-optimized, His-tagged, Trx-SMT3 (SUMO family protein)-SHA(A108E) fusion protein was expressed. […] The glycan binding was measured using two distinct concentrations of biotin-labeled SHAs (1×: 20 μg/ml and 0.1×: 2 μg/ml) in the absence and presence of 0.2 M L-rhamnose as a competitive inhibitor.

[7] = Glycan microarray (RayBio Glycan Array 100); format: binding; conditions: biotin-labeled SHAs 20 μg/ml (1×) and 2 μg/ml (0.1×), absence of L-rhamnose; remark: listed apart in the source
[8] = Solubility of recombinant SHA proteins; format: physicochemical; conditions: expressed in E. coli
Protocol: Due to solubility issues various fusion proteins of the recombinant SHA were prepared and expressed in E. coli. Of those, a yeast SUMO(SMT3)-fusion protein was successfully purified for comparing carbohydrate-binding specificity with that of archived SHA. Briefly, SMT3-fused SHA(A108E) was prepared by insertion at the SMT3 and Ulp1 cleavage sites of pET32b/SHA(A108E). E. Cloni® (Lucigen) was transformed by pET32b/SMT3-SHA(A108E). […] SHA(A108E) was cleaved off from SMT3 bound to the column by incubating with UPL1. The resulting SHA(A108E) was purified by gum arabic gels. The authenticity of SHA(A108E) was confirmed by SDS-PAGE and glycan microarray analyses.
as §2, with “expressed. This protein was refolded on the nickel NTA column in the presence of D-galactose, and soluble recombinant SHA (rSHA) was cleaved off from the Trx-SMT3 portion using His-tagged Ulp1 (8). The purified rSHA is shown in FIG. 6C, together with archived SHA.” for “expressed.”

[9] = Glycan microarray (RayBio Glycan Array 100); format: binding; conditions: biotin-labeled SHAs 20 μg/ml (1×) and 2 μg/ml (0.1×), absence of L-rhamnose; remark: listed apart in the source
[10] = Glycan microarray (RayBio Glycan Array 100); format: binding; conditions: glycans listed in Table 4
Protocol: as §1, with “Washing was performed according to the manufacturer's protocol, followed by incubation with Cy3 dye-conjugated streptavidin. The slides were incubated at 22° C. for 1 h with gentle shaking, then washed multiple times as recommended. The signals were visualized using an Agilent DNA microarray scanner (Model G2505C; Agilent, Santa Clara, Calif.) at 532 nm for Cy3. Data extraction and analysis was performed after subtraction of the background and normalization to the internal references provided by the manufacturer, using an ImageJ Protein Array Analyzer software (28).” left out
as §2

[11] = Glycan microarray (RayBio Glycan Array 100); format: binding; conditions: biotin-labeled SHAs 20 μg/ml (1×) and 2 μg/ml (0.1×), absence of L-rhamnose; remark: listed apart in the source
[12] = Glycan microarray (RayBio Glycan Array 100); format: binding; conditions: biotin-labeled SHAs 20 μg/ml (1×) and 2 μg/ml (0.1×), absence of L-rhamnose; remark: listed apart in the source
[13] = Glycan microarray (RayBio Glycan Array 100); format: binding; conditions: biotin-labeled SHAs 20 μg/ml (1×) and 2 μg/ml (0.1×), absence of L-rhamnose; remark: listed apart in the source
[14] = Glycan microarray (RayBio Glycan Array 100); format: binding; conditions: biotin-labeled SHAs 20 μg/ml (1×) and 2 μg/ml (0.1×), absence of L-rhamnose; remark: listed apart in the source

B1: rSHA: recombinant SHA(A108E) expressed in E. coli, cleaved from Trx-SMT3 fusion; SEQ ID NO: 25 (protein)
chain: ARTVCYAAHVEGIGWQGAVCDGAVAGTTGQSRRMEAAVIATSGTGGVCANAHLADIGWQGWACAADGKAVTVGTTGQSRRMEALGLQVGNGSVAAQAHVADYGWLNAEGGNPVYVGTTGQSRRMEAVRIWV
modifications: recombinant SHA
- binding signal to Gal-α-1,3-Gal-β-1,3-GlcNAc-β- [1]: Strong signals
- binding signal to Gal-α-1,4-Gal-β-1,3-GlcNAc-β- [2]: Strong signals
- binding signal to Blood B antigen trisaccharide [3]: Strong signals
- binding to Gal-α-1,4-Gal-β-1,4-Glc-β- [4]: weaker, but still significant, binding
- binding signal to Gal-α-1,3-Gal-β- [5]: Strong signals
- binding to all glycans, except α-Rha, in the presence of L-rhamnose ([6]; 0.2 M L-rhamnose as competitive inhibitor): competitively inhibited
- carbohydrate-binding specificity compared with archived SHA [6]: identical carbohydrate-binding specificities; also recorded: same glycan specificity profile
- carbohydrate-binding specificity compared with archived SHA ([6]; listed as SHA(A108E)): same carbohydrate-binding specificity
- binding signal to Blood B antigen tetrasaccharide [7]: Strong signals
- solubility [8]: soluble
- binding signal to Gal-α-1,3-Gal-β-1,4-Glc-β- [9]: Strong signals
- binding to the remaining 89 chip-immobilized glycans [10]: did not bind
- binding signal to β-Gal- [11]: Strong signals
- binding to GaINAc-β-1,3-Gal-β-1,4-Glc-β- [12]: weaker, but still significant, binding
- binding signal to α-Rha- [13]: Strong signals
- binding to Gal-α-1,4-Gal-β-1,4-GlcNAc-β- [14]: weaker, but still significant, binding
